Laboratory results from the supplement of paper PMC11246515.
± gives the standard deviation of the averaged measurements.

Assay: total protein half-life in vivo (active degradation + dilution); higher = more stable protein
[1] = E. coli NCM3722 delta-clpP delta-lon delta-hslV, growth: N-lim chemostat, doubling time 6 h
[2] = E. coli NCM3722 delta-clpP, growth: N-lim chemostat, doubling time 6 h
[3] = E. coli NCM3722 delta-hslV, growth: N-lim chemostat, doubling time 6 h
[4] = E. coli NCM3722 delta-smpB, growth: N-lim chemostat, doubling time 6 h
[5] = wild type E. coli NCM3722, growth: C-lim chemostat, doubling time 3 h
[6] = wild type E. coli NCM3722, growth: C-lim chemostat, doubling time 6 h
[7] = wild type E. coli NCM3722, growth: C-lim chemostat, doubling time 12 h
[8] = wild type E. coli NCM3722, growth: N-lim chemostat, doubling time 6 h
[9] = wild type E. coli NCM3722, growth: N-lim chemostat, doubling time 12 h
[10] = wild type E. coli NCM3722, growth: P-lim chemostat, doubling time 6 h
[11] = wild type E. coli NCM3722, growth: P-lim chemostat, doubling time 12 h
[12] = E. coli NCM3722 delta-lon, growth: N-lim chemostat, doubling time 6 h

Row | Sequence | total protein half-life in vivo [1] [h] | total protein half-life in vivo [2] [h] | total protein half-life in vivo [3] [h] | total protein half-life in vivo [4] [h] | total protein half-life in vivo [5] [h] | total protein half-life in vivo [6] [h] | total protein half-life in vivo [7] [h] | total protein half-life in vivo [8] [h] | total protein half-life in vivo [9] [h] | total protein half-life in vivo [10] [h] | total protein half-life in vivo [11] [h] | total protein half-life in vivo [12] [h]
1 | MKMVSRITAIGLAGVAICYLGLSGYVWYHDNKRSKQADVQASAVSENNKVLGFLREKGCDYCHTPSAELPAYYYIPGAKQLMDYDIKLGYKSFNLEAVRAALLADKPVSQSDLNKIEWVMQYETMPPTRYTALHWAGKVSDEERAEILAWIAKQRAEYYASNDTAPEHRNEPVQPIPQKLPTDAQKVALGFALYHDPRLSADSTISCAHCHALNAGGVDGRKTSIGVGGAVGPINAPTVFNSVFNVEQFWDGRAATLQDQAGGPPLNPIEMASKSWDEIIAKLEKDPQLKTQFLEVYPQGFSGENITDAIAEFEKTLITPDSPFDKWLRGDENALTAQQKKGYQLFKDNKCATCHGGIILGGRSFEPLGLKKDFNFGEITAADIGRMNVTKEERDKLRQKVPGLRNVALTAPYFHRGDVPTLDGAVKLMLRYQVGKELPQEDVDDIVAFLHSLNGVYTPYMQDKQ | > 8 | 4.69 | 5.53 | 4.76 | 3.28 ± 0.2 | 5.27 ± 1 | 12.2 | 5.16 | 10.8 | 5.31 | 11 ± 1.4 | 
2 | MKRAPLITGLLLISTSCAYASSGGCGADSTSGATNYSSVVDDVTVNQTDNVTGREFTSATLSSTNWQYACSCSAGKAVKLVYMVSPVLTTTGHQTGYYKLNDSLDIKTTLQANDIPGLTTDQVVSVNTRFTQIKNNTVYSAATQTGVCQGDTSRYGPVNIGANTTFTLYVTKPFLGSMTIPKTDIAVIKGAWVDGMGSPSTGDFHDLVKLSIQGNLTAPQSCKINQGDVIKVNFGFINGQKFTTRNAMPDGFTPVDFDITYDCGDTSKIKNSLQMRIDGTTGVVDQYNLVARRRSSDNVPDVGIRIENLGGGVANIPFQNGILPVDPSGHGTVNMRAWPVNLVGGELETGKFQGTATITVIVR |  | 5.21 | 6.04 ± 0.24 |  | 3.66 | 6.25 ± 0.34 | 11.5 | 5.8 | 14 | 5.42 | 13.3 | 
3 | MFVKLLRSVAIGLIVGAILLVAMPSLRSLNPLSTPQFDSTDETPASYNLAVRRAAPAVVNVYNRGLNTNSHNQLEIRTLGSGVIMDQRGYIITNKHVINDADQIIVALQDGRVFEALLVGSDSLTDLAVLKINATGGLPTIPINARRVPHIGDVVLAIGNPYNLGQTITQGIISATGRIGLNPTGRQNFLQTDASINHGNSGGALVNSLGELMGINTLSFDKSNDGETPEGIGFAIPFQLATKIMDKLIRDGRVIRGYIGIGGREIAPLHAQGGGIDQLQGIVVNEVSPDGPAANAGIQVNDLIISVDNKPAISALETMDQVAEIRPGSVIPVVVMRDDKQLTLQVTIQEYPATN [P0AEE3] | 7.33 ± 0.89 |  | 5.79 ± 0.39 | 6.21 ± 0.68 | 3.25 ± 0.23 | 5.91 ± 0.28 | 11.3 ± 1.2 | 5.98 ± 0.72 | 13.8 ± 2.3 | 7.16 ± 0.27 | 12.1 ± 0.81 | 5.86 ± 0.29
4 | MSDRIDRDVINALIAGHFADPFSVLGMHKTTAGLEVRALLPDATDVWVIEPKTGRKLAKLECLDSRGFFSGVIPRRKNFFRYQLAVVWHGQQNLIDDPYRFGPLIQEMDAWLLSEGTHLRPYETLGAHADTMDGVTGTRFSVWAPNARRVSVVGQFNYWDGRRHPMRLRKESGIWELFIPGAHNGQLYKYEMIDANGNLRLKSDPYAFEAQMRPETASLICGLPEKVVQTEERKKANQFDAPISIYEVHLGSWRRHTDNNFWLSYRELADQLVPYAKWMGFTHLELLPINEHPFDGSWGYQPTGLYAPTRRFGTRDDFRYFIDAAHAAGLNVILDWVPGHFPTDDFALAEFDGTNLYEHSDPREGYHQDWNTLIYNYGRREVSNFLVGNALYWIERFGIDALRVDAVASMIYRDYSRKEGEWIPNEFGGRENLEAIEFLRNTNRILGEQVSGAVTMAEESTDFPGVSRPQDMGGLGFWYKWNLGWMHDTLDYMKLDPVYRQYHHDKLTFGILYNYTENFVLPLSHDEVVHGKKSILDRMPGDAWQKFANLRAYYGWMWAFPGKKLLFMGNEFAQGREWNHDASLDWHLLEGGDNWHHGVQRLVRDLNLTYRHHKAMHELDFDPYGFEWLVVDDKERSVLIFVRRDKEGNEIIVASNFTPVPRHDYRFGINQPGKWREILNTDSMHYHGSNAGNGGTVHSDEIASHGRQHSLSLTLPPLATIWLVREAE | 6.52 ± 0.61 | 5.72 ± 0.24 | 6.65 ± 0.44 | 6.35 ± 0.16 | 2.98 ± 0.15 | 6.06 ± 0.42 | 13.2 ± 0.43 | 5.95 ± 0.2 | 12.2 ± 2.1 | 6.35 ± 0.33 | 12.1 ± 1.9 | 6.1 ± 0.46
5 | MQTTQQNAPLKRTMKTRHLIMLSLGGVIGTGLFFNTGYIISTTGAAGTLLAYLIGALVVWLVMQCLGELSVAMPETGAFHVYAARYLGPATGYTVAWLYWLTWTVALGSSFTAAGFCMQYWFPQVPVWVWCVVFCAIIFGLNVISTRFFAEGEFWFSLVKVVTIIAFIILGGAAIFGFIPMQDGSPAPGLSNITAEGWFPHGGLPILMTMVAVNFAFSGTELIGIAAGETENPRKVIPVAIRTTIARLIIFFIGTVFVLAALIPMQQVGVEKSPFVLVFEKVGIPYAADIFNFVILTAILSAANSGLYASGRMLWSLSNERTLPACFARVTKNGVPLTALSVSMLGGVLALFSSVVAPDTVFVALSAISGFAVVAVWLSICASHFVFRRRHLQQGKALSELHYRAPWYPLVPVLGFVLCLVACVGLAFDPAQRIALWCGLPFVALCYGAYFLTQPRNAKQEPEHVAE | 3.09 ± 0.25 | 1.78 | 3.13 | 2.51 ± 0.28 | 3.05 ± 0.71 | 4.13 ± 0.25 | 7.02 ± 0.5 | 3.79 |  | 3.63 ± 0.43 | 7.23 | 
